Experimental data from patent publication EP3470428A1 (Numab Innovation AG, dated 2019).
Substitutions are numbered along the chain they refer to.

B1: PRO1123: 38-02-A04 sc05 IF scDb-i/33_03_G02 sc01 scDb-o (bispecific antibody)
chain: DIQMTQSPSSLSASVGDRVTITCQASQSINDYLAWYQQKPGKAPKLLIYKASTLASGVPSRFSGSGSGTDFTLTISSLQPEDFATYYCQQGYIITDIDNVFGTGTKVTVLGGGGGSQVQLQESGPGLVKPSETLSLTCKVSGFSFSNSYWICWVRQPPGKGLEWIGCTFVGSSDSTYYANWAKGRVTISVDSSKNQVSLKLSSVTAADTAVYFCARHPSDAVYGYANNLWGQGTLVTVSSGGGGSGGGGSGGGGSGGGGSIQMTQSPSSLSASVGDRVTITCQASQSINNVLAWYQQKPGKPPKLLIYRASTLASGVPSRFSGSGSGTDFTLTISSLQPEDFATYYCQSSYGNYGDFGTGTKVTVLGGGGGSQVQLQESGPGLVKPSETLSLTCKVSGFSFSSGYDMCWIRQPPGKGLEWIGCVVAGSVDITYYASWAKGRVTISVDSSKNQFSLKLSSVTAADTAVYYCARKDAYSDAFNLWGQGTLVTVSS
notes: scDb
B2: PRO1124: 38-02-A04 sc06 Full scDb-i/33_03_G02 sc01 scDb-o (bispecific antibody)
chain: B1 chain with V140A, V190K, I261L
notes: scDb, STR graft of the CD137 domain
B3: PRO1059: 33-03-G02 IgG1 LC with 38_02_A04 sc01 scFV, PD-L1/CD137(scFv) silent Morrison (bispecific antibody)
light: DIQMTQSPSSLSASVGDRVTITCQASQSINDYLAWYQQKPGKAPKLLIYKASTLASGVPSRFSGSGSGTDFTLTISSLQPEDFATYYCQQGYIITDIDNVFGTGTKVTVLGTVAAPSVFIFPPSDEQLKSGTASVVCLLNNFYPREAKVQWKVDNALQSGNSQESVTEQDSKDSTYSLSSTLTLSKADYEKHKVYACEVTHQGLSSPVTKSFNRGECGGGGSGGGGSIQMTQSPSSLSASVGDRVTITCQASQSINNVLAWYQQKPGKAPKLLIYRASTLASGVPSRFSGSGSGTDFTLTISSLQPEDFATYYCQSSYGNYGDFGTGTKVTVLGGGGGSGGGGSGGGGSGGGGSQVQLQESGPGLVKPSETLSLTCKVSGFSFSNSYWICWIRQPPGKGLEWIGCTFVGSSDSTYYANWAKGRVTISVDSSKNQFSLKLSSVTAADTAVYYCARHPSDAVYGYANNLWGQGTLVTVSS
heavy: QVQLQESGPGLVKPSETLSLTCKVSGFSFSSGYDMCWIRQPPGKGLEWIGCVVAGSVDITYYASWAKGRVTISVDSSKNQFSLKLSSVTAADTAVYYCARKDAYSDAFNLWGQGTLVTVSSASTKGPSVFPLAPSSKSTSGGTAALGCLVKDYFPEPVTVSWNSGALTSGVHTFPAVLQSSGLYSLSSVVTVPSSSLGTQTYICNVNHKPSNTKVDKRVEPKSCDKTHTCPPCPAPEAAGGPSVFLFPPKPKDTLMISRTPEVTCVVVDVSHEDPEVKFNWYVDGVEVHNAKTKPREEQYNSTYRVVSVLTVLHQDWLNGKEYKCKVSNKALGAPIEKTISKAKGQPREPQVYTLPPSREEMTKNQVSLTCLVKGFYPSDIAVEWESNGQPENNYKTTPPVLDSDGSFFLYSKLTVDKSRWQQGNVFSCSVMHEALHNHYTQKSLSLSPGK
notes: IgG-scFv fusion, scFv on the light chain; also called Morrison-L
B4: PRO1060: 33-03-G02 IgG1 HC with 38_02_A04 sc01 scFV, PD-L1/CD137(scFv) silent Morrison (bispecific antibody)
light: DIQMTQSPSSLSASVGDRVTITCQASQSINDYLAWYQQKPGKAPKLLIYKASTLASGVPSRFSGSGSGTDFTLTISSLQPEDFATYYCQQGYIITDIDNVFGTGTKVTVLGTVAAPSVFIFPPSDEQLKSGTASVVCLLNNFYPREAKVQWKVDNALQSGNSQESVTEQDSKDSTYSLSSTLTLSKADYEKHKVYACEVTHQGLSSPVTKSFNRGEC
heavy: QVQLQESGPGLVKPSETLSLTCKVSGFSFSSGYDMCWIRQPPGKGLEWIGCVVAGSVDITYYASWAKGRVTISVDSSKNQFSLKLSSVTAADTAVYYCARKDAYSDAFNLWGQGTLVTVSSASTKGPSVFPLAPSSKSTSGGTAALGCLVKDYFPEPVTVSWNSGALTSGVHTFPAVLQSSGLYSLSSVVTVPSSSLGTQTYICNVNHKPSNTKVDKRVEPKSCDKTHTCPPCPAPEAAGGPSVFLFPPKPKDTLMISRTPEVTCVVVDVSHEDPEVKFNWYVDGVEVHNAKTKPREEQYNSTYRVVSVLTVLHQDWLNGKEYKCKVSNKALGAPIEKTISKAKGQPREPQVYTLPPSREEMTKNQVSLTCLVKGFYPSDIAVEWESNGQPENNYKTTPPVLDSDGSFFLYSKLTVDKSRWQQGNVFSCSVMHEALHNHYTQKSLSLSPGKGGGGSGGGGSIQMTQSPSSLSASVGDRVTITCQASQSINNVLAWYQQKPGKAPKLLIYRASTLASGVPSRFSGSGSGTDFTLTISSLQPEDFATYYCQSSYGNYGDFGTGTKVTVLGGGGGSGGGGSGGGGSGGGGSQVQLQESGPGLVKPSETLSLTCKVSGFSFSNSYWICWIRQPPGKGLEWIGCTFVGSSDSTYYANWAKGRVTISVDSSKNQFSLKLSSVTAADTAVYYCARHPSDAVYGYANNLWGQGTLVTVSS
notes: IgG-scFv fusion, scFv on the heavy chain; also called Morrison-H

How the values were obtained:
[1] = molecular target: T1, human CD137 expressed on cells (human, UniProt Q07011 24-255); experiment: cell-based or functional assay
[2] = molecular target: T1, human CD137 expressed on cells; experiment: cell-based or functional assay; remark: listed apart in the source
[3] = molecular target: T1, human CD137 expressed on cells; experiment: cell-based or functional assay; remark: listed apart in the source
[4] = molecular target: T1, human CD137 expressed on cells; experiment: cell-based or functional assay; remark: listed apart in the source
[5] = molecular target: human PD-L1-Fc chimeric protein (human, UniProt Q9NZQ7 19-239); experiment: SPR (Biacore T200); PD-L1-Fc captured by anti-human Fc
[6] = molecular target: T2, biotinylated human PD-L1 (human, UniProt Q9NZQ7 19-238, limits assumed, biotinylated); experiment: competition ELISA; coated human B7.1 as competitor; biotinylated PD-L1 pre-incubated with inhibitor
T2 construct: also called biotinylated PD-L1

[7] = molecular target: T2, biotinylated human PD-L1; experiment: competition ELISA; coated human PD-1 as competitor; biotinylated human PD-L1 pre-incubated with inhibitor
[8] = molecular target: human PD-L1 expressed on cells (human, UniProt Q9NZQ7 19-290); experiment: cell-based or functional assay
[9] = molecular target: T1, human CD137 expressed on cells; experiment: cell-based or functional assay; remark: listed apart in the source
[10] = molecular target: T1, human CD137 expressed on cells; experiment: cell-based or functional assay; remark: listed apart in the source
[11] = molecular target: T1, human CD137 expressed on cells; experiment: cell-based or functional assay; remark: listed apart in the source

Binder	EC50 in ng/ml, CD137 activation, NFkB-luciferase Jurkat reporter assay, CHO-PD-L1 cells [1] [ng/mL]	EC50 in ng/ml, CD137 activation, NFkB-luciferase Jurkat reporter assay, HCC827 cells stimulated with IFNg [2] [ng/mL]	max. activation (%), NF-kB reporter gene, CHO-PD-L1; HSA: no [3] [%]	max. activation (%), NF-kB reporter gene, HCC827 +IFNg; HSA: no [3] [%]	max. activation (%), NF-kB reporter gene, HCC827 -IFNg; HSA: no [3] [%]	EC50 in ng/ml, CD137 activation, NFkB-luciferase Jurkat reporter assay, HCC827 cells without IFNg [4] [ng/mL]	binding result [5]	IC50 [6] [µg/mL]	IC50 [7] [µg/mL]	IC50 (ng/ml), neutralization of PD-L1/PD-1 interaction, NFAT-luciferase reporter gene assay [8] [ng/mL]	EC50 in ng/ml, CD137 activation, NFkB-luciferase Jurkat reporter assay, PD-L1 expressing CHO cells, 6h [9] [ng/mL]	EC50 in ng/ml, CD137 activation, NFkB-luciferase Jurkat reporter assay, HCC827 with IFNy stimulation, 24h [10] [ng/mL]	EC50 in ng/ml, CD137 activation, NFkB-luciferase Jurkat reporter assay, HCC827 without IFNy stimulation, 24h [10] [ng/mL]	EC50 in ng/ml, CD137 activation, NFkB-luciferase Jurkat reporter assay, PD-L1 expressing CHO cells, 24h [11] [ng/mL]
B1	5.75	11.9	219	154	123	16.1	binds	–	–	–	–	–	–	–
B2	3.68	4.83	229	188	113	5.62	binds	–	–	–	–	–	–	–
B3	–	–	–	–	–	–	–	0.029	0.00454	93.8	–	–	–	–
B4	–	–	–	–	–	–	–	0.0174	0.00567	133	56.4	17.5	13.6	80.8
